# From patent publication US10407503B2, “Fully human antibodies and fragments recognizing human c-Met” (THE REGENTS OF THE UNIVERSITY OF CALIFORNIA, priority 2012, dated 2019)
# Key:
# [1] = target: T1, c-MET on the surface of Hcc827 or Hcc827-GR6 cells (human, UniProt P08581 25-1390); test: phage flow cytometry on Hcc827-GR6 cells, bound phage detected with FITC anti-M13 antibody
# T1 construct: whole, on cells; The cells express the receptor endogenously, and MET is amplified in Hcc827-GR6; also called cell surface MET
# T1 sequence (P08581 25-1390): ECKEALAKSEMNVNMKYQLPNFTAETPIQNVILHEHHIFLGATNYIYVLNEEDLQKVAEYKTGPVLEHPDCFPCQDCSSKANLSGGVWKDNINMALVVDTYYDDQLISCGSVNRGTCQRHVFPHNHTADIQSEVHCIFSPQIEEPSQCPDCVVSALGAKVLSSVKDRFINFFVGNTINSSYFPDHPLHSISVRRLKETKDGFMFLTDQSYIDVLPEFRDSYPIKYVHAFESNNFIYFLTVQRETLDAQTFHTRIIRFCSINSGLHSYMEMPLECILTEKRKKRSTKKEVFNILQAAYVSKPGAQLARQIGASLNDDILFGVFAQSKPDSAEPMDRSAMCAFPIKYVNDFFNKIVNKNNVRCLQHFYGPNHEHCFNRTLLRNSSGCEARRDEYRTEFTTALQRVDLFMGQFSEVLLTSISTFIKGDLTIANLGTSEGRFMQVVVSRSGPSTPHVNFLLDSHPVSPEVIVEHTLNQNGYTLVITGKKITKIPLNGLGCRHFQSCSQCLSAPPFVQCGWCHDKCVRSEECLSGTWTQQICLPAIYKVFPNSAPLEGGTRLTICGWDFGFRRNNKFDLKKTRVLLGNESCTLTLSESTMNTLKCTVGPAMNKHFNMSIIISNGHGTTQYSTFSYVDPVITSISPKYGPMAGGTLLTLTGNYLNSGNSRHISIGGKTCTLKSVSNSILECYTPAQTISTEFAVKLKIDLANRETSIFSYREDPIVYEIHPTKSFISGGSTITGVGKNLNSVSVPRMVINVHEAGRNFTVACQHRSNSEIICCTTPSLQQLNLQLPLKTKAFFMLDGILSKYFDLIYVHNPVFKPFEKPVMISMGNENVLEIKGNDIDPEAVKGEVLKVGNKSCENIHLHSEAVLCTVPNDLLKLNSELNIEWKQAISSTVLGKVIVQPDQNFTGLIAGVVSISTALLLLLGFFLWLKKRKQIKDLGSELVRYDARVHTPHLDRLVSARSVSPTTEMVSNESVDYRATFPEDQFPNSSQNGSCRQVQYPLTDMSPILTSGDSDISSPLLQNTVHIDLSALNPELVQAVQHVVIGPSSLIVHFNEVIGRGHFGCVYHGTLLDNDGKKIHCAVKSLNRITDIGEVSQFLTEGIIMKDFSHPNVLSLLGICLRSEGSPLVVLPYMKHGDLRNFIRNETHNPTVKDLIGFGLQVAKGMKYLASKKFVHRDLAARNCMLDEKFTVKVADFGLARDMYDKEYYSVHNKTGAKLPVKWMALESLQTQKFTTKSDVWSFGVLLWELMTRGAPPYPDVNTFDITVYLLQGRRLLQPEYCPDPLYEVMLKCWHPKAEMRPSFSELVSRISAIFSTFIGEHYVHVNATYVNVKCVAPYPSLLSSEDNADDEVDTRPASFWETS
# Procedure: (§1) For phage antibodies, flow cytometry was used to confirm their binding to c-MET expressing cells. Bacteria culture containing phage was concentrated 30 times into PBS according to published method (Antibody Engineering Methods and Protocols, Benny K. C. Lo). $2 \sim 5 \times 10^5$ c-MET positive Hcc827 or Hcc827-GR6 cells (Engelman et. al, Science, 2007) were incubated with 100 ul concentrated phage and 30 ul 4% milk-PBS on ice for 1 hour. Cells were then washed using flow buffer (PBS, 1% FBS, 2 mM EDTA), and the binding phage antibodies were detected by FITC conjugated anti-M13 monoclonal antibody (Santa Cruz Biotechnology, Cat# sc-53005 Fitc).
# [2] = target: T1, c-MET on the surface of Hcc827 or …; test: flow cytometry on Hcc827-GR6 cells, one-site total binding fit
# Procedure: (§2) The affinities of the cys-diabodies were evaluated by flow cytometry. Serial diluted cys-diabodies were incubated with Hcc827-GR6 cells at 4 degrees for 2 hours. The cys-diabodies were detected with 1/100 mouse anti-c-Myc antibody (Sigma, Cat# M4439) and stained with 1/100 PE or FITC conjugated goat anti mouse IgG polyclonal antibody (Jackson ImmunoResearch) in flow buffer.
# (§3) The affinity of these 3 cys-diabodies were evaluated by flow cytometry. The concentrations of the purified proteins were determined by their A280, measured with Nanodrop 2000 (Thermal Scientific), and their calculated extinction coefficient (ProtParam tool, expasy.org). The binding curve was fitted with one-site total binding model by GraphPad Prism.
# [3] = target: T1, c-MET on the surface of Hcc827 or …; test: flow cytometry binding curve on cells (the sheet does not name them; paragraph 217: Hcc827 GR6 cell line)
# Procedure: as §2, §3
# [4] = target: T2, mouse MET-hIgG Fc fusion protein (Sino Biological Inc.) (mouse; human, UniProt P16056 25-931, limits assumed); test: capture ELISA: cys-diabody coated on the plate, mouse MET-hIgG Fc applied, detected with alkaline phosphatase anti-human IgG
# T2 construct: Bought protein; also called mouse MET protein; MET-hFc
# T2 sequence (P16056 25-931 limits assumed): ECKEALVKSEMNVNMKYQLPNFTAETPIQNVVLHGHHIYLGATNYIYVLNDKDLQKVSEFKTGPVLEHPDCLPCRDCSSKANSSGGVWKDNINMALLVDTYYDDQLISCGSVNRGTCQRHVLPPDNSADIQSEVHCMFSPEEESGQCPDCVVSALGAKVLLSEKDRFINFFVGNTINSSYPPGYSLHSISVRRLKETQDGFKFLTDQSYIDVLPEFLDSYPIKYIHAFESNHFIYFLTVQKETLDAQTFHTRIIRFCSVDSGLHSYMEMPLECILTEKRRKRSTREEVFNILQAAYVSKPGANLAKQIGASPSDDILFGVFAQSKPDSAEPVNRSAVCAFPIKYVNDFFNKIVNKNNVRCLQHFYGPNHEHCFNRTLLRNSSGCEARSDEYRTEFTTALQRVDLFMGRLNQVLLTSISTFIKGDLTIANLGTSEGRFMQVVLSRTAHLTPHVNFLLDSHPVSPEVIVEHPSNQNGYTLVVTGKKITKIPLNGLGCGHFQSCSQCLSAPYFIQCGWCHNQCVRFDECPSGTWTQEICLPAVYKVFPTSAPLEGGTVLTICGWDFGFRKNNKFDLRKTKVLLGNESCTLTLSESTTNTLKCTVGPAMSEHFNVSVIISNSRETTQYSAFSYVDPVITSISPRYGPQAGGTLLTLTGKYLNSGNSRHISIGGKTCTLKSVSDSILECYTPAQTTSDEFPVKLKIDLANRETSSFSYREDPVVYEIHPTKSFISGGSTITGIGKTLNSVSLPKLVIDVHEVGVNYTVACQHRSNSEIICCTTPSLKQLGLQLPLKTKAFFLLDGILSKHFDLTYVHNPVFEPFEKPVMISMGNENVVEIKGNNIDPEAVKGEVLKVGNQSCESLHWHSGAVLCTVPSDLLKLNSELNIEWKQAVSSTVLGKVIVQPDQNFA
# Procedure: 1 µg of purified anti-MET cys-diabodies in 100 µL PBS were used to coat each well at 4 degree overnight. Anti-EpCAM cys-diabody or 2% milk-PBS were used for negative controls. The overnight coated plate was then washed with PBS and blocked with 2% milk-PBS at 37 degree for 2 hours. The plate was then washed with PBS before adding 0.1 µg human or mouse MET-hIgG Fc fusion protein (purchased from Sino Biological Inc.) in 100 µL, 2% milk-PBS to each well. The plate was incubated at room temperature for 1.5 hours, and then washed with PBS-Tween and PBS. The captured human or mouse MET-hIgG Fc were detected with alkaline phosphatase conjugated goat anti-human IgG.
# C2, H2 and H5 cys-diabodies were used to coat 96-well ELISA plate to capture human or mouse MET-hIgG Fc fusion protein. The human IgG Fc on the fusion protein was detected with alkaline phosphatase conjugated goat anti-human IgG. The results in FIG. 4 show H2 cys-diabody can bind to both human and mouse MET protein, while C2 and H5 cys-diabodies show minimal cross reactivity to the mouse MET. Anti-EpCAM H9 cys-diabody or 2% milk-PBS were used as negative controls.
# cell surface MET = target: T3, cell surface MET (Homo sapiens, UniProt P08581); test: Phage flow cytometry for binding to c-MET expressing cells; settings: phage antibodies; Hcc827 or Hcc827-GR6 cells; FITC anti-M13 detection
# T3 construct: endogenous in cells; host or cells: Hcc827 or Hcc827-GR6
# T3 sequence (P08581 25-1390): as the sequence (P08581 25-1390) above
# Procedure: as §1, with “2˜5×105” for “$2 \sim 5 \times 10^5$”
# 93 clones were randomly picked after 3 rounds of panning. The phage-containing supernatant was used for phage ELISA. Top 64 clones with highest A405 signal were sequenced, among which 19 distinctive clones with different sequences were identified. These distinctive clones were then tested for binding to cell surface MET by phage flow experiments. 8 of these clones show good binding to cell surface MET and were selected for the subsequent purification and characterizations.
molecule,measurement,setting,value
"E9 ScFv antibody (phage-displayed) (scFv, The fusion to the phage coat protein is not described) scFv: QVQLQESGGGVVQPGRSLRLSCAASGFTFSSYGMHWVRQAPGKGLEWVSAIGSSGGSTHDADTVKGRFTISRDNAKNSLYLQMNSLRAEDTAVYYCARDRARGFDYWGQGTLVTVSSGGGGGSGGGGSGGGGSEIVLTQSPSTLSASIGDRVTITCRASQGISSYLAWYQQKPGKAPKLLIYGASSLQSGVPSRFSGRGSGADFTLTISSLQPEDFATYYCQQLISYPLTFGGGTKVEIKR",binding result,[1],binds
"G1 ScFv antibody (phage-displayed) (scFv, The fusion to the phage coat protein is not described) scFv: QVQLQESGGGVVQPGGSLRLSCAASGFTFSSYSMNWVRQAPGKGLEWVSSISSSSSYIYYADSVKGRFTISRDNAKNSLYLQMNSLRAEDTAVYYCARDLPSDDYGDYDYYYYGMDVWGQGTTVTVSSGGGGGSGGGGSGGGGSQSVLTQPPSASGTPGQRVTLFCSGSSSNIASNSVKWYQQPPQRAPKLLMFSDDQRPSGVPVRFSASKSGTSASLAISGLQSEDEADYYCAAWDDSLNAEVFGGGTKVTVLG",binding result,[1],binds
"C2 ScFv antibody (phage-displayed) (scFv, The fusion to the phage coat protein is not described) scFv: QVQLQESGGGLVQPGGSLRLSCAASGFTFSSYAMSWVRQAPGKGLEWVSAISGSGGSTYYADSVKGRFTISRDNSKNTLYLQMNSLRAEDTAVYYCASQHVGEQSRYFDYWGQGTLVTVSSGGGGGSGGGGSGGGGSDIVMTQSPSSLSASIGDRVTITCRASHSISSYVNWYQKKPGKAPNLLIYAASYLPRGVPSRFSGSGLGTDFTLTISNLQPEDFATYYCQESYSTPYSFGQGTKVDIKR",binding result,[1],binds
"H5 cys-diabody (other, Expressed in E. coli and purified through the His tag; also called H5 diabody) QVQLQESGGGLVQPGGSLRLSCAASGFTFSNYAMSWVRQAPGKGLEWVSAISGSGGSTYYADSVKGRFTISRDNSKNTLYLQMNSLRAEDTAVYYCAKDRFRAAAYWGQGTLVTVSSGGGGGSQSVLTQPPSVSAAPGQKVTISCTGSSSNIGAGYDVHWYQQLPGTAPKLLIYGNSNRPSGVPDRFSGSKSGTSASLAISGLQSEDEADYYCAAWDDILNGEIFGGGTKVTVLGAAAEQKLISEEDLNGAAHHHHHHC",Kd,[2],4.6 nM
same,Kd,[3],4.7 nM
same,binding result,[4],no binding
"C2 cys-diabody (other, Expressed in E. coli and purified through the His tag; also called C2 diabody) QVQLQESGGGLVQPGGSLRLSCAASGFTFSSYAMSWVRQAPGKGLEWVSAISGSGGSTYYADSVKGRFTISRDNSKNTLYLQMNSLRAEDTAVYYCASQHVGEQSRYFDYWGQGTLVTVSSGGGGGSDIVMTQSPSSLSASIGDRVTITCRASHSISSYVNWYQKKPGKAPNLLIYAASYLPRGVPSRFSGSGLGTDFTLTISNLQPEDFATYYCQESYSTPYSFGQGTKVDIKRAAAEQKLISEEDLNGAAHHHHHHC",Kd,[2],2.4 nM
same,Kd,[3],2 nM
same,binding result,[4],no binding
"H5 ScFv antibody (phage-displayed) (scFv, The fusion to the phage coat protein is not described) scFv: QVQLQESGGGLVQPGGSLRLSCAASGFTFSNYAMSWVRQAPGKGLEWVSAISGSGGSTYYADSVKGRFTISRDNSKNTLYLQMNSLRAEDTAVYYCAKDRFRAAAYWGQGTLVTVSSGGGGGSGGGGSGGGGSQSVLTQPPSVSAAPGQKVTISCTGSSSNIGAGYDVHWYQQLPGTAPKLLIYGNSNRPSGVPDRFSGSKSGTSASLAISGLQSEDEADYYCAAWDDILNGEIFGGGTKVTVLG",binding result,[1],binds
"H5 ScFv antibody: human anti-c-Met ScFv comprising SEQ ID NO:32; tested as phage-displayed clone (protein, phage-displayed; synthetic H5 ScFv sequence) scFv: QVQLQESGGGLVQPGGSLRLSCAASGFTFSNYAMSWVRQAPGKGLEWVSAISGSGGSTYYADSVKGRFTISRDNSKNTLYLQMNSLRAEDTAVYYCAKDRFRAAAYWGQGTLVTVSSGGGGGSGGGGSGGGGSQSVLTQPPSVSAAPGQKVTISCTGSSSNIGAGYDVHWYQQLPGTAPKLLIYGNSNRPSGVPDRFSGSKSGTSASLAISGLQSEDEADYYCAAWDDILNGEIFGGGTKVTVLG",binding to cell surface MET,cell surface MET,can bind to cell surface MET
"F11 ScFv antibody (phage-displayed) (scFv, The fusion to the phage coat protein is not described) scFv: QVQLQESGGGLLQPGGSLRLSCAASRFTFSNYAMSWVRQAPGKGLEWVSAISGSGASTYYADSVKGRFTISRDNSKNTLYLQMNSLRAEDTAVYYCSNLYGDYDYWGQGTLVTVSSGGGGGSGGGGSGGGGSQSVLTQPASVSGSPGQSITISCTGTSSDVGGYNYVSWYQQHPGKAPKLMIYDVSNRPSGVSNRFSGSKSGNTASLTISGLQAEDEADYYCSSYTSSSTLLFGGGTKLTVLG",binding result,[1],binds
